From US20260193375A1 (NORMUNITY, published 2026)

T1: recombinant human LY6K (Wuxi) (human, UniProt Q17RY6 18-138)
T1 construct: Limits of the construct not clearly stated; also called Human LY6K (Wuxi LY^KGLY138(1-38TR)_8His)
T1 sequence: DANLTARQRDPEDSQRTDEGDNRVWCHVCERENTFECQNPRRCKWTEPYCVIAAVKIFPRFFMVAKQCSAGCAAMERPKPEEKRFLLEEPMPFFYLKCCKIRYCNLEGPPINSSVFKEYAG

T2: hLY6K-mFc (human, UniProt Q17RY6 18-138)
T2 construct: not shown: mFc
T2 sequence: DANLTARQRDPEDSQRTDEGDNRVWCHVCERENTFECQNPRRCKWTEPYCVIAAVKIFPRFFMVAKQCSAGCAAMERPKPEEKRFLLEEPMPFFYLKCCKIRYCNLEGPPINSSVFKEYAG

T3: hLY6K-his (human, UniProt Q17RY6 18-138, limits assumed)
T3 construct: not shown: his tag
T3 sequence: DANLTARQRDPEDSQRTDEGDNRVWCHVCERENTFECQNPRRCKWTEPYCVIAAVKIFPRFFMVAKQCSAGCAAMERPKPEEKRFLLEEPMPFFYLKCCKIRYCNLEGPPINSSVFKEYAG

T4: human LY6E (R&D Systems) (human, UniProt Q16553 21-101, limits assumed)
T4 construct: also called hLY6E
T4 sequence (looked up): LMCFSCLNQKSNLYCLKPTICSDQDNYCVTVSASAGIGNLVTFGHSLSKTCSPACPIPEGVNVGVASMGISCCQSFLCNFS

T5: Human LY6K (R&D Systems) (human, UniProt Q17RY6 18-138, limits assumed)
T5 construct: Bought from R&D Systems, coated on ELISA plates; also called hLY6K
T5 sequence: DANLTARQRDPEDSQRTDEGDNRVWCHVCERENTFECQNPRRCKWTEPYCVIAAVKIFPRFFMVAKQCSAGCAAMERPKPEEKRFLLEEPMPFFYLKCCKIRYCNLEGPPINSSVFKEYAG

T6: Ly6H
T6 chain: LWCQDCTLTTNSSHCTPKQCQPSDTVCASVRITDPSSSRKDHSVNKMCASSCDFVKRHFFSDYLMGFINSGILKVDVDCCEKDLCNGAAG

T7: Ly6D
T7 chain: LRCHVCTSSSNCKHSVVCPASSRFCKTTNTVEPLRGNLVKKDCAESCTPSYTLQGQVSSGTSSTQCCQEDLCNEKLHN

T8: cell-surface anchored LY6K (human, UniProt Q17RY6 18-138)
T8 construct: the cell is named under assay; also called LY6K on target cells
T8 sequence: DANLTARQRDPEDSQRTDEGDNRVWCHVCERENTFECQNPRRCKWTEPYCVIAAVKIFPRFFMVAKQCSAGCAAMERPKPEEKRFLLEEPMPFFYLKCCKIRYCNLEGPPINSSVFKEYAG


Experiments:
[1] = target: T1, recombinant human LY6K (Wuxi); experiment: ELISA, LY6K coated at 2 ug/mL, HRP-labelled mAb titrated
hLY6K-mFc = target: T2, hLY6K-mFc; experiment: SPR (Carterra LSA), mAb captured on anti-human IgG-Fc, antigen as analyte
cyLY6K-mFc = cyLY6K-mFc (cynomolgus monkey); experiment: as above
hLY6K-his = target: T3, hLY6K-his; experiment: as above
[2] = target: T1, recombinant human LY6K (Wuxi); experiment: capture ELISA (MSD): antibody coated as capture at 2 µg/mL, recombinant human LY6K titrated, sulfo-tagged polyclonal anti-hLY6K (AF6648) for detection; EC50 is the LY6K concentration
rat LY6K (R&D Systems) = target: T9, rat LY6K (R&D Systems) (rat); experiment: ELISA, coated antigen, IgG1 at 10 ug/ml
T9 construct: also called rLY6K

human LY6E (R&D Systems) [3] = target: T4, human LY6E (R&D Systems); experiment: ELISA, coated antigen, IgG1 at 10 ug/ml
Human LY6K (R&D Systems) = target: T5, Human LY6K (R&D Systems); experiment: ELISA, coated antigen, IgG1 at 10 ug/ml
[4] = target: T10, cynomolgus monkey LY6K (R&D Systems) (cynomolgus monkey); experiment: ELISA, coated antigen, IgG1 at 10 ug/ml
T10 construct: also called cyLY6K

human LY6E (R&D Systems) [5] = target: T4, human LY6E (R&D Systems); experiment: ELISA, antigen coated on the plate, antibody as human IgG1, anti-human F(ab)2 HRPO
Ly6H = target: T6, Ly6H; experiment: as above
Ly6D = target: T7, Ly6D; experiment: as above
[6] = target: T8, cell-surface anchored LY6K; experiment: flow cytometry on target cells, MFI fitted in Prism
[7] = target: T8, cell-surface anchored LY6K; experiment: flow cytometry on target cells, MFI fitted in Prism; flow cytometry, live target cells, 4 degrees C

Row | EC50 [1] [nM] | Kd (hLY6K-mFc) [nM] | Kd (cyLY6K-mFc) [nM] | Kd (hLY6K-his) [nM] | EC50 [2] [µg/mL] | % of maximum of commercial anti-LY6K mAb on human LY6K (rat LY6K (R&D Systems)) [%] | % of maximum of commercial anti-LY6K mAb on human LY6K (human LY6E (R&D Systems) [3]) [%] | % of maximum of commercial anti-LY6K mAb on human LY6K (Human LY6K (R&D Systems)) [%] | % of maximum of commercial anti-LY6K mAb on human LY6K [4] [%] | binding result (human LY6E (R&D Systems) [5]) | binding result (Ly6H) | binding result (Ly6D) | EC50 [6] [nM] | EC50 [7] [nM] | Binder
1 | 3.08 | 0.0505 | 0.379 | 5.66 | 0.0568 | -1.6 | 3.1 | 67.6 | 66.4 | no binding (tested: 10 µg/ml) | no binding (tested: 10 µg/ml) | no binding (tested: 10 µg/ml) | – | – | anti-LY6K antibody 3741 (antibody, V domains shown) VH: EVQLVESGGGLVKPGGSLRLSCAASGFTFSSYSMNWVRQAPGKGLEWVSSISSSSNYIYYVDSVKGRFTTSRDNAKNSLYLQMNSLRAEDTAVYYCARQEATGNNYYYYYMDVWGKGTTVTVSS VL: DIQMTQSPSSLSASVGDRVTITCRASQSISNYLNWYQQNLGKAPKVLIYAASSLQSGVPSRFSGSGSGTDFTLTISSLQPEDFATYYCQQTYSTPITFGQGTRLEIK
2 | 2.86 | – | – | – | 0.168 | 1 | 5.6 | 65.2 | 71.4 | no binding (tested: 10 µg/ml) | no binding (tested: 10 µg/ml) | no binding (tested: 10 µg/ml) | – | – | anti-LY6K antibody 3035 (antibody, V domains shown) VH: EVQLVESGGGLVQPGGSLKLSCAASGFTFSDSTLHWVRQASGKGLEWVGRIRSKANSYATAYAASVKGRFTISRDDSKNTAYLQMNSLKTEDTAVYYCHNWSYGYWGQGTLVTVSS VL: QTVVTQEPSLTVSPGGTVTLTCASSTGAVTSYYYPNWFQQKPGQAPRTVIYSTTNKHSWTPARFSGSLLGGKAALTLSGVLPEDEADYYCLLFYGGAYVFGTGTKVTVL
3 | – | 0.263 | 1.39 | 7.48 | – | 2.5 | 4.5 | 43.7 | 57.2 | no binding (tested: 10 µg/ml) | no binding (tested: 10 µg/ml) | no binding (tested: 10 µg/ml) | – | – | anti-LY6K antibody 3785 (antibody, V domains shown) VH: QVQLQQSGPGLVKPSQTLSLTCAISGDSVSSNSAAWNWIRQSPSRGLEWLGRTYFRSKWNNDYTLSVKNRITINPDTSKNHFSLQLNSVTPEDTAVYYCAGGGYCNRTYCPDVFDIWGQGTMVTVSS VL: DIQMTQSPSSLSASVGDRVTFTCRSSQSISSYLNWYQQKPGKAPNLLIYVASTLQSGVPSRFSGSGSGTDFTLTISSLQPEDFATYYCQQSYSIPLTFGGGTKVEIK
4 | – | 0.0264 | – | 1.83 | 0.163 | 0.6 | 2.4 | 94.9 | 3 | – | – | – | – | – | anti-LY6K antibody 3101 (antibody, V domains shown) VH: EVQLVESGGGLVQPGRSLRLSCAASGFTFDDYAMHWVRQTPGKGLEWVSGITWKSGNIGYADSVKGRFTISRDNAKNSLYLQMNSLRAEDTALYYCAKDTEAGLDYWGQGTLVTVSS VL: not shown
5 | 2.08 | 0.0157 | – | 1.19 | – | 0.9 | 2.7 | 99.4 | 0.2 | – | – | – | 2.84 | – | anti-LY6K antibody 3481 (antibody, V domains shown) VH: EVQLVESGGGLVQSGRSLRLSCAASGFTFDDYAMHWVRQAPGKGLEWVSGITWKDVTIGYADSVKGRFTISRDNAKNSLYLQMNSLGAEDTALYYCAKDTSDGLDYWGQGTLVTVSS VL: DIVMTQTPLSSPVTLGQPASISCRSSQSLVHSNGNTYLSWLQQRPGQPPRLLIYKISNRFSGVPDRFSGSGAGTDFTLKISRVETEDVGIYYCMQAIQFPYTFGQGTKLEIK
6 | 2.65 | 0.0428 | – | 4.7 | – | 1.5 | 2.5 | 81.2 | 0.1 | – | – | – | 3.33 | – | anti-LY6K antibody 3048 (antibody, V domains shown) VH: EVQLVESGGGLVQPGRSLRLSCAASGFTFDDYAMHWVRQAPGKGLEWVSGITWKSGTIGYADSVKGRFTISRDNAKNSLYLQMNSLRAEDTALYYCAKDSRTGLDYWGQGALVTVSS VL: not shown
7 | 16.2 | 0.185 | – | 6.31 | – | 0 | 7.8 | 102 | 1.1 | – | – | – | 58.1 | – | anti-LY6K antibody 3705 (antibody, V domains shown) VH: EVQLVESGGGLVHPGRSLRLSCAASGFTFDDYAMHWVRQAPGKGLEWVSGISWKNGKIDYADSVKGRFITSRDNAKNSLYLQMNSLRTEDTALYYCAKDRIEMTFDIWGQGTMVTVSS VL: DIVMTQSPLSSPVTLGQPASISCRSSQSLEHSNGNTYLSWLQQRPGQPPRLLIYKISNRFSGVPDRFSGSGAGTDFTLKISRVEAEDVGVYYCMQTTQFPLTFGGGTKVEIK
8 | 5.2 | 0.164 | – | 3.23 | 0.315 | -1.2 | 3.4 | 89.2 | -0.2 | no binding (tested: 10 µg/ml) | no binding (tested: 10 µg/ml) | no binding (tested: 10 µg/ml) | 164 | – | anti-LY6K antibody 3074 (antibody, V domains shown) VH: EVQLVESGGGLVHPGRSLRLSCAASGFTFDDYAMHWVRQAPGKGLEWVSGISWKTNKIDYADSVKGRFTTSRDNAKNSLYLQMNSLRTEDTAFYYCAKDRREMTFDIWGQGTMVTVSS VL: DIVMTQTPLSSPVTLGQPASISCRSSQSLEHSNGNTYLSWLQQRPGQPPRLLIYKISNRFSGVPDRFSGSGAGTDFTLKISRVEAEDVGIYYCMQATQFPLTFGGGTKVEIK
9 | 1.56 | – | – | – | – | 0.7 | 1.6 | 58.3 | 16.7 | – | – | – | – | 0.805 | anti-LY6K antibody 3075 (antibody, V domains shown) VH: QVQLVQSGSELKRPGASVKVSCKASGYTFIRYAMNWVRQAPGQGLEWMGWINTNTGNPTYAQGFTGRFVLSVDTSVSTAYLQISSLKVEDTAVYYCGRPGISSFEYWGQGTLVTVSS VL: DIQMTQSPSSLSASVGDRVAITCRATQDISNYLDWYQQKPGKAPKLLIYDASNLETGVPSRFSGSGSGTDFTFTINSLQPEDIATYYCQQYDNLPLTFGGGTKVEIK
10 | 1.57 | 0.00702 | 0.0518 | 3.59 | 0.0756 | -0.1 | 3.1 | 95.1 | 106 | no binding (tested: 10 µg/ml) | no binding (tested: 10 µg/ml) | no binding (tested: 10 µg/ml) | 0.364 | – | anti-LY6K antibody 2660 (antibody, V domains shown) VH: EVQLVESGGGLVKPGGSLRLSCAASGFTFSDVWMSWVRQAPGKGLEWVGRIKSKTDGGRIDYAAPVKGRFTISRDDSKNTLYLQMNSLKTEDTAVYYCTTVPYSDYWGQGTLVTVSS VL: not shown
